Experimental findings from patent US20050196404A1 are described below.

In assay [1] the target is E-Cw*03 SCT (HLA-E single chain trimer with the peptide …) (human). The experiment in a line: flow cytometry, stably transfected LLC-PK1 cells. (A flow cytometer gives signals particle by particle.)
For assay [2], the target named is HLA-E SCD (HLA-E single chain dimer) (human). The experiment in a line: flow cytometry, stably transfected LLC-PK1 cells.
Assay [3] has as its target E-Cw*03 SCT (HLA-E single chain trimer with the peptide …) (human). Description: flow cytometry, sorted E-Cw*03 SCT LLC-PK1 stable transfectants.
Assay [4] addresses E-hsp60 SCT (HLA-E SCT harboring the hsp60-derived peptide …) (human). The experiment in a line: flow cytometry, stably transfected LLC-PK1 cells.

As to HLA-E-specific mAb 3D12 (antibody), the mean fluorescent intensity (MFI) in assay [1] was 375 MFI; in assay [2] it was 62 MFI. Besides, the percent of cells stained in assay [3] was found to be 100%.

Substance HLA-E-specific mAb MEM-E/6 (antibody) displayed a fold less staining than E-Cw*03 SCT in assay [4] of 4 to 5 fold.
